Here are results for one substance from article PMC4430413.

The experiment has as its target monomeric Uox conjugated to HSA (HSA-conjugated Uox-W160.174AzF subunit of Uox-HSA) (Aspergillus flavus | human) (UniProt P02768). Description: co-purification by ion exchange chromatography, read by SDS-PAGE.
Chain of UniProt P02768 (P02768 whole entry, looked up): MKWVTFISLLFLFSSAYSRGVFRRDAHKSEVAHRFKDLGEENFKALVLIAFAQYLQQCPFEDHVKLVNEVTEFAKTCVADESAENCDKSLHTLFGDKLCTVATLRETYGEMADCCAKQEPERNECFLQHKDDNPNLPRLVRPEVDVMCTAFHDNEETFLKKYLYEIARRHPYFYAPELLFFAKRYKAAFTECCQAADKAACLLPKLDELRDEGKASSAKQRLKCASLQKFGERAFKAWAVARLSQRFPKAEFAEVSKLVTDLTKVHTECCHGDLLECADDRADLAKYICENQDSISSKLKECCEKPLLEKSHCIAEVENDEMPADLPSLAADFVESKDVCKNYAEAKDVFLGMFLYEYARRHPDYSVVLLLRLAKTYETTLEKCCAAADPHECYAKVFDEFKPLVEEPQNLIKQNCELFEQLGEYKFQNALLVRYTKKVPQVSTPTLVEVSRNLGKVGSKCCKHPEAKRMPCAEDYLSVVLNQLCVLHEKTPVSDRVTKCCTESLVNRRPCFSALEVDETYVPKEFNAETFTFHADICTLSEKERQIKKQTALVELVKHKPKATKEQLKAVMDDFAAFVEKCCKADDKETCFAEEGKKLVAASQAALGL

For “AzF-incorporated urate oxidase (Uox-W160.174AzF) (enzyme)”, the molar ratio of unreacted Uox monomer to monomeric Uox conjugated to HSA turned out to be 2.5.
